Experimental data: patent US12679878B2, “CRF2 receptor agonists and their use in therapy” (SANOFI, priority 2020, dated 2026)
Starred links: 1 amine or outer side, 2 acyl side, 3 side chain; linkers in the order of their positions; H or OH if unused. Non-standard residues stand in square brackets, D forms with d. Groups on a side chain read outwards from the residue. No end group written: not given here. *: point of attachment. C18 diacid = O=C(O)CCCCCCCCCCCCCCCCC(=O)*; γGlu = O=C(O)[C@H](CCC(=O)[*:2])N[*:1]; AEEA = NCCOCCOCC(=O)O; Aib = CC(C)(N)C(=O)O

T1: anti-target CRF1R receptor (UniProt P34998 24-415, limits assumed)
T1 sequence (looked up): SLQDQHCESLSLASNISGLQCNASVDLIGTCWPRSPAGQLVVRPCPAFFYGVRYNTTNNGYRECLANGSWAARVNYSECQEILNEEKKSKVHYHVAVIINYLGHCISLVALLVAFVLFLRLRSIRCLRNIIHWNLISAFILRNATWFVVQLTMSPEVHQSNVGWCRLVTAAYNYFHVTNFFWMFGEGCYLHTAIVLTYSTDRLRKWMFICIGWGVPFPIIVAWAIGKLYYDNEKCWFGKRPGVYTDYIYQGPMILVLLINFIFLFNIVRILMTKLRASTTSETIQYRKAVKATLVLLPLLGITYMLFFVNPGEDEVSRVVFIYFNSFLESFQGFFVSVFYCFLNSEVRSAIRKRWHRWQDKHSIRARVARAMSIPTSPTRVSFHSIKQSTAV


Legend:
rat CRF2R α receptor = rat CRF2R α receptor (rat, UniProt P47866 20-411); experiment: cell-based or functional assay
rat CRF2R α receptor, sequence (P47866 20-411): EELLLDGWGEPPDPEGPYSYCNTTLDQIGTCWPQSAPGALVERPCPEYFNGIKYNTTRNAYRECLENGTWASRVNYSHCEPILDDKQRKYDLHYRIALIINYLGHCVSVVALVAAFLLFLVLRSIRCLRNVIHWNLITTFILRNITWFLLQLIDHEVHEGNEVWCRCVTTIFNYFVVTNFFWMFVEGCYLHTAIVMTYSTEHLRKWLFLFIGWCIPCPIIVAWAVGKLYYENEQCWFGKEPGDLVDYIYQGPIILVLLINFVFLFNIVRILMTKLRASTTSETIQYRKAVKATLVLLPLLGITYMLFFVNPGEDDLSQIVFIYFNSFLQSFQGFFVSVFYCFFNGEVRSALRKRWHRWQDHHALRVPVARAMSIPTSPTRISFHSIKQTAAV

[1] = biological target: T1, anti-target CRF1R receptor; experiment: cell-based or functional assay

| Binder | EC50 [nM], 0% HSA (cAMP, A7R5 cells) (rat CRF2R α receptor) | EC50[nM] 0% HSA (cAMP, CRF1R-overexpression CHO cells) [1] | Emax (%) (cAMP, CRF1R-overexpression CHO cells) [1] |
| --- | --- | --- | --- |
| IVLSLD[dV]PIKLK([AEEA-AEEA-γGlu-C18 diacid])QILLKQERQKK[Aib]RQKAEKNKQILAQV-NH2 (N-terminus assumed; SMILES CC[C@H](C)[C@H](N)C(=O)N[C@H](C(=O)N[C@@H](CC(C)C)C(=O)N[C@@H](CO)C(=O)N[C@@H](CC(C)C)C(=O)N[C@@H](CC(=O)O)C(=O)N[C@@H](C(=O)N1CCC[C@H]1C(=O)N[C@H](C(=O)N[C@@H](CCCCN)C(=O)N[C@@H](CC(C)C)C(=O)N[C@@H](CCCCNC(=O)COCCOCCNC(=O)COCCOCCNC(=O)CC[C@H](NC(=O)CCCCCCCCCCCCCCCCC(=O)O)C(=O)O)C(=O)N[C@@H](CCC(N)=O)C(=O)N[C@H](C(=O)N[C@@H](CC(C)C)C(=O)N[C@@H](CC(C)C)C(=O)N[C@@H](CCCCN)C(=O)N[C@@H](CCC(N)=O)C(=O)N[C@@H](CCC(=O)O)C(=O)N[C@@H](CCCNC(=N)N)C(=O)N[C@@H](CCC(N)=O)C(=O)N[C@@H](CCCCN)C(=O)N[C@@H](CCCCN)C(=O)NC(C)(C)C(=O)N[C@@H](CCCNC(=N)N)C(=O)N[C@@H](CCC(N)=O)C(=O)N[C@@H](CCCCN)C(=O)N[C@@H](C)C(=O)N[C@@H](CCC(=O)O)C(=O)N[C@@H](CCCCN)C(=O)N[C@@H](CC(N)=O)C(=O)N[C@@H](CCCCN)C(=O)N[C@@H](CCC(N)=O)C(=O)N[C@H](C(=O)N[C@@H](CC(C)C)C(=O)N[C@@H](C)C(=O)N[C@@H](CCC(N)=O)C(=O)N[C@H](C(N)=O)C(C)C)[C@@H](C)CC)[C@@H](C)CC)[C@@H](C)CC)C(C)C)C(C)C) [peptide of SEQ ID NO: 136] | 0.38 nM | > 1000 nM | 21.8% |
| FTLSLDVPIKLK([AEEA-AEEA-γGlu-C18 diacid])QILLKQERQKKQRQKAKKNKQILERV-NH2 (N-terminus assumed; SMILES CC[C@H](C)[C@H](NC(=O)[C@H](CCC(N)=O)NC(=O)[C@H](CCCCNC(=O)COCCOCCNC(=O)COCCOCCNC(=O)CC[C@H](NC(=O)CCCCCCCCCCCCCCCCC(=O)O)C(=O)O)NC(=O)[C@H](CC(C)C)NC(=O)[C@H](CCCCN)NC(=O)[C@@H](NC(=O)[C@@H]1CCCN1C(=O)[C@@H](NC(=O)[C@H](CC(=O)O)NC(=O)[C@H](CC(C)C)NC(=O)[C@H](CO)NC(=O)[C@H](CC(C)C)NC(=O)[C@@H](NC(=O)[C@@H](N)Cc1ccccc1)[C@@H](C)O)C(C)C)[C@@H](C)CC)C(=O)N[C@@H](CC(C)C)C(=O)N[C@@H](CC(C)C)C(=O)N[C@@H](CCCCN)C(=O)N[C@@H](CCC(N)=O)C(=O)N[C@@H](CCC(=O)O)C(=O)N[C@@H](CCCNC(=N)N)C(=O)N[C@@H](CCC(N)=O)C(=O)N[C@@H](CCCCN)C(=O)N[C@@H](CCCCN)C(=O)N[C@@H](CCC(N)=O)C(=O)N[C@@H](CCCNC(=N)N)C(=O)N[C@@H](CCC(N)=O)C(=O)N[C@@H](CCCCN)C(=O)N[C@@H](C)C(=O)N[C@@H](CCCCN)C(=O)N[C@@H](CCCCN)C(=O)N[C@@H](CC(N)=O)C(=O)N[C@@H](CCCCN)C(=O)N[C@@H](CCC(N)=O)C(=O)N[C@H](C(=O)N[C@@H](CC(C)C)C(=O)N[C@@H](CCC(=O)O)C(=O)N[C@@H](CCCNC(=N)N)C(=O)N[C@H](C(N)=O)C(C)C)[C@@H](C)CC) [peptide of SEQ ID NO: 146] | 0.22 nM | > 1000 nM | 1.03% |

The next lines start with the values.

| EC50 [nM], 0% HSA (cAMP, A7R5 cells) (rat CRF2R α receptor) | EC50[nM] 0% HSA (cAMP, CRF1R-overexpression CHO cells) [1] | Emax (%) (cAMP, CRF1R-overexpression CHO cells) [1] | Binder |
| --- | --- | --- | --- |
| 2.41 nM | > 1000 nM | 26.9% | Ac-IVLSLD[dV]PIKLK([AEEA-AEEA-γGlu-C18 diacid])QILLEQARQK[Aib]QREQAEKNEQILEQV-NH2 (SMILES CC[C@H](C)[C@H](NC(C)=O)C(=O)N[C@H](C(=O)N[C@@H](CC(C)C)C(=O)N[C@@H](CO)C(=O)N[C@@H](CC(C)C)C(=O)N[C@@H](CC(=O)O)C(=O)N[C@@H](C(=O)N1CCC[C@H]1C(=O)N[C@H](C(=O)N[C@@H](CCCCN)C(=O)N[C@@H](CC(C)C)C(=O)N[C@@H](CCCCNC(=O)COCCOCCNC(=O)COCCOCCNC(=O)CC[C@H](NC(=O)CCCCCCCCCCCCCCCCC(=O)O)C(=O)O)C(=O)N[C@@H](CCC(N)=O)C(=O)N[C@H](C(=O)N[C@@H](CC(C)C)C(=O)N[C@@H](CC(C)C)C(=O)N[C@@H](CCC(=O)O)C(=O)N[C@@H](CCC(N)=O)C(=O)N[C@@H](C)C(=O)N[C@@H](CCCNC(=N)N)C(=O)N[C@@H](CCC(N)=O)C(=O)N[C@@H](CCCCN)C(=O)NC(C)(C)C(=O)N[C@@H](CCC(N)=O)C(=O)N[C@@H](CCCNC(=N)N)C(=O)N[C@@H](CCC(=O)O)C(=O)N[C@@H](CCC(N)=O)C(=O)N[C@@H](C)C(=O)N[C@@H](CCC(=O)O)C(=O)N[C@@H](CCCCN)C(=O)N[C@@H](CC(N)=O)C(=O)N[C@@H](CCC(=O)O)C(=O)N[C@@H](CCC(N)=O)C(=O)N[C@H](C(=O)N[C@@H](CC(C)C)C(=O)N[C@@H](CCC(=O)O)C(=O)N[C@@H](CCC(N)=O)C(=O)N[C@H](C(N)=O)C(C)C)[C@@H](C)CC)[C@@H](C)CC)[C@@H](C)CC)C(C)C)C(C)C) [peptide of SEQ ID NO: 165] |
| 12.6 nM | > 1000 nM | 25.8% | Ac-IVLSLD[dV]PIGLK([AEEA-AEEA-γGlu-C18 diacid])QILLEQERQK[Aib]QREQAEKNKQILEQV-NH2 (SMILES CC[C@H](C)[C@H](NC(C)=O)C(=O)N[C@H](C(=O)N[C@@H](CC(C)C)C(=O)N[C@@H](CO)C(=O)N[C@@H](CC(C)C)C(=O)N[C@@H](CC(=O)O)C(=O)N[C@@H](C(=O)N1CCC[C@H]1C(=O)N[C@H](C(=O)NCC(=O)N[C@@H](CC(C)C)C(=O)N[C@@H](CCCCNC(=O)COCCOCCNC(=O)COCCOCCNC(=O)CC[C@H](NC(=O)CCCCCCCCCCCCCCCCC(=O)O)C(=O)O)C(=O)N[C@@H](CCC(N)=O)C(=O)N[C@H](C(=O)N[C@@H](CC(C)C)C(=O)N[C@@H](CC(C)C)C(=O)N[C@@H](CCC(=O)O)C(=O)N[C@@H](CCC(N)=O)C(=O)N[C@@H](CCC(=O)O)C(=O)N[C@@H](CCCNC(=N)N)C(=O)N[C@@H](CCC(N)=O)C(=O)N[C@@H](CCCCN)C(=O)NC(C)(C)C(=O)N[C@@H](CCC(N)=O)C(=O)N[C@@H](CCCNC(=N)N)C(=O)N[C@@H](CCC(=O)O)C(=O)N[C@@H](CCC(N)=O)C(=O)N[C@@H](C)C(=O)N[C@@H](CCC(=O)O)C(=O)N[C@@H](CCCCN)C(=O)N[C@@H](CC(N)=O)C(=O)N[C@@H](CCCCN)C(=O)N[C@@H](CCC(N)=O)C(=O)N[C@H](C(=O)N[C@@H](CC(C)C)C(=O)N[C@@H](CCC(=O)O)C(=O)N[C@@H](CCC(N)=O)C(=O)N[C@H](C(N)=O)C(C)C)[C@@H](C)CC)[C@@H](C)CC)[C@@H](C)CC)C(C)C)C(C)C) [peptide of SEQ ID NO: 164] |
